Data taken from patent publication EP4696714A1, “PREPARATION METHOD FOR NANOBODY TARGETING TISSUE FACTOR AND CONJUGATE AND USE THEREOF” (Fudan University, priority 2023, dated 2024).

Columns and labels:
[1] = compared with MMDX and doxorubicin; cited from earlier work
[2] = system: 18 human tumor cell lines; conditions: average against 18 human tumor cell lines; cited from earlier work
[3] = biological target: T1, human TF extracellular domain protein (TF-ECD, Met 1-Glu 251) (human, UniProt P13726 33-251); assay: ForteBio OCTET R2 (called SPR), method of Example 2
T1 construct: range 1-251; also called human TF-ECD; not shown: His tag (protein captured on an NTA sensor as 'FDYKSD-01-His')

[4] = biological target: T1, human TF extracellular domain protein …; assay: ForteBio OCTET R2; His-tagged antigen on NTA sensor, nanobody-Fc 25-1.56 nM in solution, 25°C
[5] = biological target: T2, TF on the surface of tumor cells (MDA-MB-231, HPAF-II, HCC1806, BxPC3, HCC44, PC9, H1975 and other … (UniProt P13726 33-295, limits assumed)); assay: flow cytometry on MDA-MB-231 cells, PE-labeled secondary antibody
T2 construct: whole, on cells; the cell lines are human tumour lines; also called TF on cell surface; tumor cell surface TF

[6] = system: HCC1954 mammary pad xenograft; assay: HCC1954 mammary pad xenograft experiment; type: in vivo; conditions: once a week, twice in total
[7] = system: KRAS^G12D pancreatic cancer HPAF-II xenograft tumor; assay: Pancreatic cancer HPAF-II xenograft model; type: in vivo, Balb/c nude mice; conditions: 3 mg/kg, single-dose, tail vein
Description: Pancreatic ductal adenocarcinoma (PDAC) HPAF-II cells in logarithmic growth phase were subcutaneously inoculated into the bank of 5-week-old female Balb/c nude mice (purchased from Shanghai Sippr-BK Laboratory Animal Co., Ltd.) at a density of 2.5×10^6 cells per 200 µL serum-free medium. When tumor volume reached 100-200 mm^3, animals were randomly grouped, 8 tumors per group. The preferred TF-NDCs such as 4-A02-MMAE, 4-A02-ABD-MMAE were administered via tail vein injection at 3 mg/kg or 1 mg/kg on the day of grouping, with hIgG1-MMAE as the negative control. Only one dose was administered throughout the experiment. Tumor volume and mouse body weight were measured twice a week to plot growth curves. Tumor volume (V) was calculated using the formula: V = 1/2 × a × b^2, where a and b represent tumor length and width, respectively.

For COc1cccc2c1C(=O)c1c(O)c3c(c(O)c1C2=O)C[C@@](O)(C(=O)CO)C[C@@H]3O[C@H]1C[C@H]2[C@H](O[C@@H]3[C@@H](OC)OCCN32)[C@H](C)O1 [PNU-159682], the increase in activity [1] is given as 3000 folds.

In the case of CN[C@H](C(=O)N[C@H](C(=O)N(C)[C@H](/C=C(\C)C(=O)O)C(C)C)C(C)(C)C)C(C)(C)c1ccccc1 [Taltobulin], the IC50 [2] is given as 2.5 nM.

B1: original nanobody 4A02 (parental antibody 4A02, as comparator in Examples 11 and 12) (Fc fusion)
VHH: QVQLVESGGGLVQPGGSLSLSCTASETISSTYIMGWHRRSPGKERELVAVISGDGVTHYADFVKGRFVISRDNAKNAVYLKMNFLTPEDTAVYYCYAAGRWNHWGQGTQVTVSS
notes: not shown: Fc segment of the comparator
B1 gave a Kd [3] of 0.29 nM.

B2: F1-A01-FC1 (chimeric nanobody: F1-A01 VHH fused with human Fc mutant fragment FC1) (Fc fusion)
chain: EVQLVESGGGLVQAGGSLRLSCAASGRAFSAYAMGWFRQAPGKEREFVAAISWSGGSTYYADSVRGRFTISRDNTKNTVYLQMNSLKPEDTAVYYCNADSLLSLLDGSRGGPGTDSGSWGQGTQVTVSSEPKSSDKTHTCPPCPAPEFEGGPSVFLFPPKPKDTLMISRTPEVTCVVVDVSHEDPEVKFNWYVDGVEVHNAKTKPREEQYNSTYRVVSVLTVLHQDWLNGKEYKCKVSNKALPASIEKTISKAKGQPREPQVYTLPPSRDELTKNQVSLTCLVKGFYPSDIAVEWESNGQPENNYKTTPPVLDSDGSFFLYSKLTVDKSRWQQGNVFSCSVMHEALHNHYTQKSLSLSPGK
notes: it is built from the VHH and FC1 as in 4-A02-FC1
B2 gave a Kd [4] of 4.37 nM and an EC50 [5] of 0.75 µg/mL.

B3: 4-A02-DXd (conjugate)
chain: QVQLVESGGGLVQPGGSLSLSCTASETISSTYIMGWHRRSPGKERELVAVISGDGVTHYADFVKGRFVISRDNAKNAVYLKMNFLTPEDTAVYYCYAAGRWNHWGQGTQVTVSSEPKSSDKTHTCPPCPAPEFEGGPSVFLFPPKPKDTLMISRTPEVTCVVVDVSHEDPEVKFNWYVDGVEVHNAKTKPREEQYNSTYRVVSVLTVLHQDWLNGKEYKCKVSNKALPASIEKTISKAKGQPREPQVYTLPPSRDELTKNQVSLTCLVKGFYPSDIAVEWESNGQPENNYKTTPPVLDSDGSFFLYSKLTVDKSRWQQGNVFSCSVMHEALHNHYTQKSLSLSPGK
With B3 the “inhibition of tumor growth” value ([6]; 10 mg/kg intravenous) was “significant inhibition of tumor growth and caused tumor regression”.

B4: 4-A02-ABD-MMAE: NDC of 4-A02-ABD (monomer) coupled to mc-vc-MMAE, DAR1 (conjugate)
chain: QVQLVESGGGLVQPGGSLSLSCTASETISSTYIMGWHRRSPGKERELVAVISGDGVTHYADFVKGRFVISRDNAKNAVYLKMNFLTPEDTAVYYCYAAGRWNHWGQGTQVTVSSGGGGSGGGGSGGGGSQHDEAVDANSLAEAKVLANRELDKYGVSDYYKNLINNAKTVEGVKALIDEILAALPAAACAAAHHHHHH
With B4 the “inhibition of tumor growth” value ([6]; 3 mg/kg intravenous) was “significant inhibition of tumor growth and caused tumor regression” and the “anti-tumor effect (tumor volume)” value [7] was “complete tumor regression”.
